Molecular target: hybrid aspen (poplar) cellulose synthase isoform-8 (CesA8) (hybrid aspen (poplar))
Test: cryo-EM structure

hybrid aspen (poplar) cellulose synthase isoform-8 (CesA8) (enzyme)
stoichiometry N: 3
